In data set [1] the target is T1, UGT88C13 (TraesCS2B01G012000) (Triticum aestivum, UniProt A0A3B6BZ82).
T1 construct: gene LOC123043080; also cloned in pGEX-6p-1 (GST)
T1 sequence (A0A3B6BZ82 1-489): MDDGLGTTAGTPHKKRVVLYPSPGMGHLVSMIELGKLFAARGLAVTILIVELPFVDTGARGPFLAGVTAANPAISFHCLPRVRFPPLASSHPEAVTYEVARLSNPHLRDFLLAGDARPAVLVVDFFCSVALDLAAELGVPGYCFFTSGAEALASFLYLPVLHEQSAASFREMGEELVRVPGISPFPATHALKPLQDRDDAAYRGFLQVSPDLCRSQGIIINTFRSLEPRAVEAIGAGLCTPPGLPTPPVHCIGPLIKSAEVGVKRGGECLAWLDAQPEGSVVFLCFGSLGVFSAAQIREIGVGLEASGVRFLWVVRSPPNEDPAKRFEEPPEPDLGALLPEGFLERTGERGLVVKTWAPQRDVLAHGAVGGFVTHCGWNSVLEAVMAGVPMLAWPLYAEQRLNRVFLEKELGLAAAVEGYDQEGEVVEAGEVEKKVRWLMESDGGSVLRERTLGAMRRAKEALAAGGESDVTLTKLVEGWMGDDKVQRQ
Nature of the data set: LC-MS glucosyltransferase assay. The conditions noted are these: UDP-glucose as donor, Tris-HCl pH 7.5, 10 mM MgCl2, 37 °C; mainly 7-O-glucosylation. The data set is classed as biochemical.

For data set [2], the target named is T2, UGT88C14 (KN9204 allele of TraesCS2B01G012000) (Triticum aestivum, UniProt Z9F0T2E170).
T2 construct: full-length natural allele from KN9204, StrepII-tagged, expressed in and purified from N. benthamiana
T2 sequence (Z9F0T2E170 1-489): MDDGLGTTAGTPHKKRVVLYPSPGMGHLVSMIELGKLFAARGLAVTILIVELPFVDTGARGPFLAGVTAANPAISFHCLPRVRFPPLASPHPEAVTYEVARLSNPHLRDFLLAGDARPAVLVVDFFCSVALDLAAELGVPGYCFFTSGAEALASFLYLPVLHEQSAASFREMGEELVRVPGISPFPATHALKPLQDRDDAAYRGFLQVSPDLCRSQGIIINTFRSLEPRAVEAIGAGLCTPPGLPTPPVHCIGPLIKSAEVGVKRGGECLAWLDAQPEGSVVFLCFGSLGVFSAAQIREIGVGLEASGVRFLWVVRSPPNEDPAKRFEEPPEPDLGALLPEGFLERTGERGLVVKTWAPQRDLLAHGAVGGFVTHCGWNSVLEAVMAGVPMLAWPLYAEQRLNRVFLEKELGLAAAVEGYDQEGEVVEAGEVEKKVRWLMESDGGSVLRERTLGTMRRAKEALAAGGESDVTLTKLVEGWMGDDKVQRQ
Nature of the data set: LC-MS glucosyltransferase assay. The data set is classed as biochemical. To be noted: UDP-glucose as donor, Tris-HCl pH 7.5, 10 mM MgCl2, 37 °C; mainly 7-O-glucosylation.

Substrate in data set [3]: O=c1cc(-c2ccc(O)cc2)oc2cc(O)cc(O)c12
Nature of the data set: purified protein. The conditions noted are these: UDP-glucose as donor, Tris-HCl pH 7.5, 10 mM MgCl2, 37 °C, mainly 7-O-glucosylation.

Substrate in data set [4]: O=c1c(O)c(-c2ccc(O)cc2)oc2cc(O)cc(O)c12
The experiment in a line: purified protein. To be noted: UDP-glucose as donor, Tris-HCl pH 7.5, 10 mM MgCl2, 37 °C, mainly 7-O-glucosylation.

Substrate in data set [5]: O=c1cc(-c2ccc(O)c(O)c2)oc2cc(O)cc(O)c12
The experiment in a line: LC-MS glucosyltransferase assay. The data set is classed as biochemical, Triticum aestivum. The conditions noted are these: UDP-glucose as donor, Tris-HCl pH 7.5, 10 mM MgCl2, 37 °C, mainly 7-O-glucosylation.

The text below walks through data of article PMC7383920, “Metabolomics analysis and metabolite‐agronomic trait associations using kernels of wheat (Triticum aestivum) recombinant inbred lines” (The Plant Journal, 2020).

Some results are limits rather than exact numbers.

In the case of `O=c1c(O)c(-c2ccc(O)c(O)c2)oc2cc(O)cc(O)c12` [quercetin], the Km in data set [1] was over 1000 µM. Turning to `O=c1cc(-c2ccc(O)cc2)oc2cc(O)cc(O)c12` [apigenin], the Km in data set [2] worked out at 21.8 ± 9.15 µM.

B1: UGT88C13 (TraesCS2B01G012000) (Triticum aestivum) (protein)
chain: MDDGLGTTAGTPHKKRVVLYPSPGMGHLVSMIELGKLFAARGLAVTILIVELPFVDTGARGPFLAGVTAANPAISFHCLPRVRFPPLASSHPEAVTYEVARLSNPHLRDFLLAGDARPAVLVVDFFCSVALDLAAELGVPGYCFFTSGAEALASFLYLPVLHEQSAASFREMGEELVRVPGISPFPATHALKPLQDRDDAAYRGFLQVSPDLCRSQGIIINTFRSLEPRAVEAIGAGLCTPPGLPTPPVHCIGPLIKSAEVGVKRGGECLAWLDAQPEGSVVFLCFGSLGVFSAAQIREIGVGLEASGVRFLWVVRSPPNEDPAKRFEEPPEPDLGALLPEGFLERTGERGLVVKTWAPQRDVLAHGAVGGFVTHCGWNSVLEAVMAGVPMLAWPLYAEQRLNRVFLEKELGLAAAVEGYDQEGEVVEAGEVEKKVRWLMESDGGSVLRERTLGAMRRAKEALAAGGESDVTLTKLVEGWMGDDKVQRQ
notes: also cloned in pGEX-6p-1 (GST)
For the molecule B1, the values for the Km (in “purified protein [3]”; in “purified protein [4]”; in data set [5]) were 19.47 ± 6.76 µM, 20.33 ± 5.75 µM and 22.13 ± 6.54 µM, respectively.

The term Km denotes the substrate concentration at which the rate is half of its maximum.
